# Data published in patent US9623039B2, “Treatment and prevention of pathological conditions using iduna related techniques and compositions” (VALTED, LLC, priority 2010, dated 2017).
# How the values were obtained:
# MCF7 cells [1] = experiment: Alkaline comet assay after γ-irradiation; assay type: cell-based, human; conditions: γ-irradiation 2 Gy, 15 min
# Description: Comet assay. Single cell gel electrophoresis assay was performed by following the manufacturer's instructions. Briefly, established stable cell lines were irradiated (2 Gy) with a Gammacell irradiator and then further incubated for 15 min at 37° C. Cells were collected at 500×g at 4° C. and rinsed twice with ice cold PBS (Ca++ and Mg++ free). A total of 5×10^5 cells were counted and resuspended into PBS (Ca++ and Mg++ free) and then combined with LMAgarose (low melting agarose) at a ratio 1:10 (v/v). Each sample was spotted into CometSlide™ and lysed with buffer (supplied with CometAssay Kit, Trevigen) for 1 h at 4° C. After draining the excess lysis buffer, slides were immersed with alkaline unwinding solution (200 mM NaOH, pH>13, 1 mM EDTA) for 1 h at RT. To the single cell electrophoresis, each comet slide was placed in electrophoresis slide tray with 1 L of alkaline unwinding solution and applied to 21 Volts for 30 min for electrophoresis. After draining the excess electrophoresis buffer, slides were rinsed twice with dH2O and then fixed with 70% ethanol for 5 min. To facilitate single cell observation, slides were dried at 40° C. and stained with SYBR Green I (supplied with CometAssay Kit) for 5 min at 4° C. […] Fifty cells per slide were monitored and the DNA damage was calculated using comet tail length and head diameter parameters.
# MCF7 cells [2] = experiment: MNNG cell death assay in stable MCF7 cell lines; assay type: cell-based, human; conditions: MNNG 500 μM 15 min, 24 hr
# Description: Cell death assay. GFP, GFP-Iduna, GFP-Iduna C60A, GFP-Iduna YRAA, shRNA-Iduna and shRNA-Iduna/GFP-Iduna stably transfected cells were treated with 500 μM MNNG for 15 min, and replaced with fresh growth media. After 24 h, the cells were stained with […] Hoechst 33342 (Invitrogen) and […] propidium iodide (PI) (Invitrogen) and counted by automated computer-assisted program (Carl Zeiss). The percentage of cell death was determined as the ratio of live to dead cells compared with the percentage of cell death in control.
# MCF7 cells [3] = experiment: Cell cycle analysis after γ-irradiation; assay type: cell-based, human; conditions: γ-irradiation 2 Gy
# Description: Cell cycle analysis. Studies were performed to evaluate the cell cycle response of each stable cell lines. Cells were plated onto 150 mm culture dishes and cultured for 24 h at 37° C. with fresh growth medium. Following replacement of growth medium, cells were irradiated at 2 Gy with a Gammacell irradiator. After 12 h, cells were washed once with PBS and incubated with PBS containing 0.2% EDTA for 5 min at 37° C., thereafter scraped with fresh growth medium and collected at 500×g at 4° C. Collected cells were washed once with ice cold PBS and then fixed with 70% ethanol. Cells were washed once with PBS containing 1% FBS and resuspended into propidium iodide (PI) staining buffer (PBS, pH 7.4, 50 μg/ml PI, 1% FBS, 100 μg/ml RNase) for 30 min at 37° C. Cells were monitored for DNA content by a flow cytometry (BD Biosciences) and then data were analyzed with FlowJo using Dean-Jett-Fox model for the quantification of each cell cycle phase.
# MCF7 cells [4] = experiment: Determination of apurinic/apyrimidinic (AP) sites; assay type: cell-based, human; conditions: 1 h
# Description: Determination of apurinic/apyrimidinic (AP) sites. The amount of AP sites in genomic DNA was monitored by a DNA damage quantification kit (BioVision). Briefly, cells were treated with either DMSO or 500 μM MNNG for 15 min, and then replaced with normal growth media. After 1 h, cells were scraped and harvested at 500×g for 5 min and washed once with PBS. Genomic DNA was isolated using a Biovision Genomic DNA Isolation Kit (BioVision) and then AP sites on the 0.5 μg of genomic DNA was labeled with biotin by the Aldehyde Reactive Probe (ARP) reagent (supplied with the DNA damage quantification kit) for 1 h at 37° C. To precipitate the biotin-tagged DNA, sample was mixed with TE buffer containing 2% glycogen and then sequentially incubated with ice cold 70% ethanol for 30 min at −20° C. […] To determine of the number of AP sites in DNA, samples were dissolved in TE buffer and then transferred into 96 well plate with DNA binding buffer (supplied with the DNA damage quantification kit). After 12 h, samples were washed five times with DNA washing buffer (supplied with the DNA damage quantification kit) and then biotin labeled AP sites were quantified using an avidin-biotin assay. Each sample and standards (supplied with a DNA damage quantification kit) were run in triplicate and the OD was measured at 650 nm using a 96-well plate reader (SpectraMax Plus384 Microplate Reader).
# PAR polymer = PAR polymer overlay / dot blot (far western); assay type: binding; conditions: PAR polymer overlay assay
# Text: PAR binding is specified by a sequence of approximately 20 amino acids containing N-terminal basic amino acids and a C-terminal region containing alternating hydrophobic and basic amino acids (FIG. 24). Iduna contains a predicted PAR polymer binding sequence within amino acids 144-167 of the WWE domain (FIGS. 1 and 24). The PAR-binding domain was defined by comparing to the consensus sequence for PAR-binding and the known PAR binding domain of Histone 3 (FIG. 24). HEK293 cells were transfected with GFP, GFP-Iduna lacking the WWE domain (GFP-IdunaΔWWE), GFP-Iduna lacking the RF domain (GFP-IdunaARF), and full-length GFP-Iduna, followed by immunoprecipitation with a GFP antibody. […] Only GFP-Iduna-ARF and full-length GFP-Iduna can co-immunoprecipiate PAR binding proteins (FIG. 25). The critical amino acids in the PAR binding domain, 156Y and 157R, were mutated to 156A and 157A in full length Iduna (Iduna-YRAA). […] Similar results are obtained with a biotin-tagged PAR polymer followed by detection with an anti-biotin antibody (FIG. 26). […] Histone H3 is a known PAR binding protein and was used as a positive control for the PAR overlay assay. […] An assay based on electrophorectic mobility shift (EMSA) for PAR binding was developed to monitor PAR polymer binding to Iduna. […]
# PARsylated PARP1 = experiment: PARG activity on PARsylated PARP1; assay type: biochemical
# Description: FIG. 85—PARG activity was measured by incubation with PARsylated PARP1 as indicated. The level of PARsylated PARP1 (Rb-PARP1) was monitored by immunoblot with anti-PAR antibody. There is a slight difference in the sensitivity of assays used to detect PAR, which accounts for the ability of 1 unit of PARG to eliminate PAR in B, but 1.2 units of PARG is required in A.
# As disclosed herein, Iduna contains a consensus PBM is its WWE domain and that mutating the hydrophobic amino acids 155Y and 156R to alanine to create an Iduna YRAA mutant disrupts PAR binding to Iduna. MCF7 cells were transfected with GFP-Iduna, GFP-Iduna C60A and GFP-Iduna YRAA. 48 hours later Iduna was immunoprecipitated with antibodies to GFP followed by immunoblot analysis with antibodies to PAR. Iduna and Iduna C60A bind PAR whereas Iduna YRAA is incapable of binding PAR (FIG. 83). To confirm that Iduna binding to PARP1 is dependent on PARsylation of PARP1, binding of automodified PARP1 with ^32P-NAD was monitored in a GST pull down experiment with Histone H3 as a positive control (FIGS. 84 and 85). […] Iduna and Iduna-C60A bind to a range of PAR polymers of varying length similar to H3, whereas Iduna-YRAA fails to bind to PAR, as determined by phosphorimager detection of radiolabeled PAR polymer bound to Iduna, Iduna-C60A and H3 after separation by Tris-borate-EDTA PAGE (FIG. 87).
molecule,measurement,setting,value
"Iduna C60A: Iduna RING finger point mutant lacking E3 ligase activity (protein, UniProt Q9NTX7 1-359, looked up, variant C60A, GFP tag) E3 ubiquitin-protein ligase …: MMAGCGEIDHSINMLPTNRKANESCSNTAPSLTVPECAICLQTCVHPVSLPCKHVFCYLAVKGASWLGKRCALCRQEIPEDFLDKPTLLSPEELKAASRGNGEYAWYYEGRNGWWQYDERTSRELEDAFSKGKKNTEMLIAGFLYVADLENMVQYRRNEHGRRRKIKRDIIDIPKKGVAGLRLDCDANTVNLARESSADGADSVSAQSGASVQPLVSSVRPLTSVDGQLTSPATPSPDASTSLEDSFAHLQLSGDNTAERSHRGEGEEDHESPSSGRVPAPDTSIEETESDASSDSEDVSAVVAQHSLTQQRLLVSNANQTVPDRSDRSGTDRSVAGGGTVSVSVRSRRPDGQCTVTEV",comet head diameter and tail length,MCF7 cells [1],does not prevent the reduction in head diameter and increase in tail length
same,MNNG-induced cell death,MCF7 cells [2],not protective
same,cell cycle arrest and cell survival,MCF7 cells [3],not protective
same,increase in AP sites after MNNG,MCF7 cells [4],fails to reduce the number of AP sites
"GST-Iduna: full length recombinant GST-Iduna fusion protein (protein, left off: a dimerising Fc or GST, full length recombinant GST-Iduna fusion protein) MEMAGCGEIDHSINMLPTNKKANESCSNTAPSLTVPECAICLQTCVHPVSLPCKHVFCYLCVKGASWLGKRCALCRQEIPEDFLDKPTLLSPEELKAASRGNGEYAWYYEGRNGWWQYDERTSRELEDAFSKGKKNTEMLIAGFLYVADLENMVQYRRNEHGRRRKIKRDIIDIPKKGVAGLRLDCDTNTVNLARESSADGADSGSAQTGASVQLAVPSSTRPLTSVDGQLTSPVTPSPDAGISLEDSFAHLQLSGDSIAERSHRGEGEEDHESPSSGRVPDTSVEETESDASSDSEDAPVVVAQHSLTQQRPLVPNGNQTVADQSDRSGTDRSVAGGGTMSVNVRSRRPDGQCTVIEV",PAR polymer binding,PAR polymer,binds to PAR polymer
"PARG: PAR glycohydrolase, which degrades PAR (protein, UniProt Q86W56 1-976, looked up) Poly(ADP-ribose) …: MNAGPGCEPCTKRPRWGAATTSPAASDARSFPSRQRRVLDPKDAHVQFRVPPSSPACVPGRAGQHRGSATSLVFKQKTITSWMDTKGIKTAESESLDSKENNNTRIESMMSSVQKDNFYQHNVEKLENVSQLSLDKSPTEKSTQYLNQHQTAAMCKWQNEGKHTEQLLESEPQTVTLVPEQFSNANIDRSPQNDDHSDTDSEENRDNQQFLTTVKLANAKQTTEDEQAREAKSHQKCSKSCDPGEDCASCQQDEIDVVPESPLSDVGSEDVGTGPKNDNKLTRQESCLGNSPPFEKESEPESPMDVDNSKNSCQDSEADEETSPGFDEQEDGSSSQTANKPSRFQARDADIEFRKRYSTKGGEVRLHFQFEGGESRTGMNDLNAKLPGNISSLNVECRNSKQHGKKDSKITDHFMRLPKAEDRRKEQWETKHQRTERKIPKYVPPHLSPDKKWLGTPIEEMRRMPRCGIRLPLLRPSANHTVTIRVDLLRAGEVPKPFPTHYKDLWDNKHVKMPCSEQNLYPVEDENGERTAGSRWELIQTALLNKFTRPQNLKDAILKYNVAYSKKWDFTALIDFWDKVLEEAEAQHLYQSILPDMVKIALCLPNICTQPIPLLKQKMNHSITMSQEQIASLLANAFFCTFPRRNAKMKSEYSSYPDINFNRLFEGRSSRKPEKLKTLFCYFRRVTEKKPTGLVTFTRQSLEDFPEWERCEKPLTRLHVTYEGTIEENGQGMLQVDFANRFVGGGVTSAGLVQEEIRFLINPELIISRLFTEVLDHNECLIITGTEQYSEYTGYAETYRWSRSHEDGSERDDWQRRCTEIVAIDALHFRRYLDQFVPEKMRRELNKAYCGFLRPGVSSENLSAVATGNWGCGAFGGDARLKALIQILAAAAAERDVVYFTFGDSELMRDIYSMHIFLTERKLTVGDVYKLLLRYYNEECRNCSTPGPDIKLYPFIYHAVESCAETADHSGQRTGT",removal of PAR from PARsylated PARP1,PARsylated PARP1,dose dependently removes PAR from PARsylated PARP1
